From the DeepSol protein solubility set

Experiment: soluble on expression in E. coli; label from the status in PepcDB or PDB records
With “MSEDADLKIFMDFLVEKTKDAFQPMIAVQVFREYLNEKSHLHDYHYKRFCCDLAPNMNEWNNYSIEARIRLMYALGGKVESDFLERIETHGTVELNKKRKITKYTSNDGILSLQDNRVHFTRFMDFLIQKTKYAVEPMNFNQVLEEFCRLEPDCRHYGVYYVRFHHKLAPNMDALNNYNIYDRIRLMFVLNGKVSGDFFKTIKTHGTVELDRKKKITKYVSNDGKLKLGGNIISDTRLMDFLIQKTRHSVEPMQATNLIFKEFSERPSRILDKMYQLRFYQKLAPNMNEWNRYSIEQRIRLMFVLKGKVADDFLKTIPILSMAKRIMICRIETHGTVELDEKRRIRKYTSNDGKLSLKKPLTDDTSCPTNIRFMDFLIQNTKDGAESIRLIYNEFALLEGNVLSASTYSSRFCKKLAPKMSQWSNYRIEDRIRMMFALKGKVESDFLAQMIQSGAVQLDENYRIVRYTSNNGKVELSEKRSGVKRRSSTKSSKTLGKRRQVIEKELSDLDEPEFVGIMHGYPKQEPVYEEIINQDMRYNNEDPHIPPEIEQFPIQAVHLEEPKFDPISSMNIGRGTLAQRFGTTSSESDGISVHNFLISLELILTSLESDTLIDLMREIKELRNRTNDEILPPDLVIPALQTCFMGITRKFRPEVSAPSKSAGECLRILKYSLLWLQSPLLYDLQKRVQEEIENCGADGKVIPIADIQQGIRNILFAVSI” the “soluble on expression in E. coli” value was “not soluble”.
For “MVNTNLEELRTQVDQLNIDLLELISKRANLVQEIGKIKGTQGSLRFDPLREREMLNTILAANEGPFEDSTVQKLFKEIFKAGLELQEEDHSKALLVSRKNKKEDTIVTVKGLPIGNGEPVFVFGPCSVESYEQVAAVAESIKAKGLKLIRGGAFKPRTSPYDFQGLGLEGLKILKRVSDEYGLGVISEIVTPADIEVALDYVDVIQIGARNMQNFELLKAAGRVDKPILLKRGLSATIEEFIGAAEYIMSQGNGKIILCERGIRTYEKATRNTLDISAVPILKKETHLPVMVDVTHSTGRKDLLLPCAKAALAIEADGVMAEVHPDPAVALSDSAQQMDIPEFEEFWNAILASNLVPHKIK”, the “soluble on expression in E. coli” value was “not soluble”.
For “MLSPDNVFIAIKPVDMRRGIDSLTQYIQDELRSTWHEGAAFVFVNKARSRIKVLRWDKHGVWLCTRRLHKGSFRWPRANDAAWHLTPDEFNWLIAGVDWQQVKGHDLTKWVWQNEPELRPENTQNTLLTQ”, the “soluble on expression in E. coli” value was “not soluble”.
With “HHHHHHSSGLVPRGSHMRNYCTKTFGSAFSVTVVPTLKDNFSYLINDHTTHTLAAVDVNADYKPILTYIEEHLKQQGNADVTYTFSTILSTHKHWDHSGGNAKLKAELEAMNSTVPVVVVGGANDSIPAVTKPVREGDRVQVGDLSVEVIDAPCHTRGHVLYKVQHPQHPNDGVALFTGDTMFIAGIGAFFEGDEKDMCRAMEKVYHIHKGNDYALDKVTFIFPGHEYTSGFMTFSEKTFPDRASDDLAFIQAQRAKYAAAVKTGDPSVPSSLAEEKRQNLFLRVADPAFVAKMNQGNAHALMMYLYNACD” the “soluble on expression in E. coli” value was “soluble”.
In the case of “SKVKVAVRIRPMNRRETDLHTKCVVDVDANKVILNPVNTNLSKGDARGQPKVFAYDHCFWSMDESVKEKYAGQDIVFKCLGENILQNAFDGYNACIFAYGQTGSGKSYTMMGTADQPGLIPRLCSGLFERTQKEENEEQSFKVEVSYMEIYNEKVRDLLDPKGSRQTLKVREHSVLGPYVDGLSKLAVTSYKDIESLMSEGNKSRTVAATNMNEESSRSHAVFKITLTHTLYDVKSGTSGEKVGKLSLVDLAGSERATKTGAAGDRLKEGSNINKSLTTLGLVISALADQSAGKNKNKFVPYRDSVLTWLLKDSLGGNSKTAMVATVSPAADNYDETLSTLRYADRAKHHHHHH”, the “soluble on expression in E. coli” value is reported as “soluble”.
In the case of “RLHEILASGVYANHPSPLTIALGKDISGRPVVSDLAKMPHALVAGTTGSGKSVAINAIILSLVYKASPDNVRLILIDPKMLELSVYDGIPHLLTPVVTDMRDAASALNWCVAEMERRYKLMSALGVRNLAGYNQKVREAVKNEEPLTNPLNPVPGSPELLEEMPLIVVVIDELADLMMIVGKKVEKLIARLAQKARAAGIHLLLATQRPSV”, the “soluble on expression in E. coli” value is reported as “not soluble”.
For “SNAMKDKIIDNAITLFSEKGYDGTTLDDIAKSVNIKKASLYYHFDSKKSIYEQSVKCCFDYLNNIIMMNQNKSNYSIDALYQFLFEFIFDIEERYIRMYVQLSNTPEEFSGNIYGQIQDLNQSLSKEIAKFYDESKIKMTKEDFQNLILLFLESWYLKASFSQKFGAVEESKSQFKDEVYSLLNIFLKK”, the “soluble on expression in E. coli” value was “soluble”.
For “MSHHHHHHSMSKNILDMRNTVQIGIVVRDIEESLQNYAEFFGVEKPQWFWTDDYSKAHTKFNGRPTKARAKLAFFELGPLQLELIEPDENPSTWREFLDKNGEGIHHIAFVVKDMDRKVEELYRKGMKVIQKGDFEGGRYAYIDTLRALKVMIELLENY”, the “soluble on expression in E. coli” value was “soluble”.
In the case of “GSHMLKGQEFAPSHQQVYAPLRADGDKPRAHLTVVRQTPTQHFKNQFPALHWEHELGLAFTKNRMNYTNKFLLIPESGDYFIYSQVTFRGMTSESSEIRQAGRPNKPDSITVVITKVTDSYPEPTQLLMGTKSVSEVGSNWFQPIYLGAMFSLQEGDKLMVNVSDISLVDYTKEDKTFFGAFLL”, the “soluble on expression in E. coli” value is reported as “soluble”.
With “MGSDKIHHHHHHMINFLPYSLDILRAADRDRYISVLFAPKKKRRALAALYAFNAEIARIRENVHNPLIGEIRLRWWYDSIAKSEMEKSESNPILSDLFMAMTLFNLPKTAFLRYCDAQILDLYHNPIATLYDLEFYCGETASIILQLSCQILDPDMAQNFTDAYQHAGIAQGLSGVLRLLSFMQSRYQYYLPADMLKALGIKREELESNRISKEQKCHVIEAMVALSRDHYNRFYEYFNMMPKTLKPAFLPLAIIPASLQKAIQLGAAVFQENAALPLLHRYWFITKAAISSNLPKIL” the “soluble on expression in E. coli” value was “not soluble”.
In the case of “MNRHPALSLDLDDGIDRKVLGQLRQRFLAVNAGRLQRARQALSSRQERVLRLLPLLFHINHPLLPGYLSASTPAGLSGFEADDEVLAEAQRLARSFVYKPRRQEPAQQPIHGLFLMGSLGSLAQEEQSDLDLWVCHAPELEPGARQELRRKCALIEDWARSQGSEVHCFLIDVARFGQDEREDRKEPGGDGNTQHFLLLDEFYRSAIWLGGRTPLWWLVPPAHERRYDEYCRTLLGKRFIRAEEVLDLGHLAHIPAREFIGAGLWQLSKAIDSPYKSLLKLLLTEAYASEHPRVRCVALRFKEQVFAGQLDLDELDPYVLVYRHLERYLREQQAPERLELVRRCLYLKVGRKLGGRQRQAQKGWQHLSMERLVAEWQWEPRRLALLDSRSQWKMRQVMEERRTVVNELTYSYRLLFQIARQQGADSGIDSRDLGLLGRRLYAAFERKAGKVENINPGIAPDLGEDVLTLVQLPADDGREQAQWAIFPGALGAHQWPDYAPLKRSLRLVELLAWCHRNGVIDSATRLSLHPGQSDLGDAELDNLLGSLRQFLPVPLATVDDADLLQPRRLKSVLLLVNVGVDPLRHHSQMNLHMATGRTDVLGYAGVRDNLVLTLDQLSLNSWNELTVRHYAGPQALPECLAEFLDAVREKPGSPPQPPELMVRCFCRNRAAAIAVRVEELFRETYGQLLGGQPSRYLLQIRQQYHLLEMSPEAVSHESLPDLPSLLQHLGRERDGYSALKLDRHALEGEDLGLILSMGRPDCIQVFYRRDFDSAEISLLDERNALWRQRQALRDERSLLAPLQRFLQSLLYRRNALSLAEQVPAALDIRYYELLSNDGRVHVEPREAPEALAGPALYELQALLERGERKRVQVTLYCDHQEFSELEYGAGLFKAVARHILAHRAESEPYPCYLTDLDLSRLFADEQPQTLHYLRYKSVLETALNQALLE”, the “soluble on expression in E. coli” value is reported as “not soluble”.
For “MSLSKSTFEIKNGHFYRNGKITPVLSGEMHYARIPHQYWRHRLQMMKGMGLNTVATYVFWNLHEPEPGKWDFTGDKNLAEFIKTAGEEGMMVILRPGPYVCAEWEFGGYPWWLQNVKGMEIRRDNPEFLKYTKAYIDRLYKEVGSLQCTKGGPIVMVQCENEFGSYVAQRKDIPLEEHRAYNAKIKQQLADAGFNVPLFTSDGSWLFEGGATPGALPTANGESDIENLKKVVDQYHDGKGPYMVAEFYPGWLSHWAEPFPQIGASGIARQTEKYLQNDVSFNFYMVHGGTNFGFTSGANYDKKRDIQPDMTSYDYDAPISEAGWVTPKYDSIRNVIKKYVKYTIPEAPAPNPVIEIPSIQLNKVADVLAFAEKQKPVSSDTPLTFEQLNQGYGYVLYTRHFNQPISGTLEIPGLRDYAVVYVDGEQVGVLNRNTKTYSMEIEVPFNATLQILVENMGRINYGSEIVHNTKGIISPVQIAGKEIVGGWDMYQLPMDEMPDLTKLKADTHKNVPSEVAKLKGCPVLYEGTFTLDKVGDTFMDMESWGKGIVFVNGVNIGRYWKVGPQQTLYVPGVWLKKGENKIVIFEQLNETPQTEVKTVKTPVLMKLKGEGHHHHHH”, the “soluble on expression in E. coli” value was “soluble”.
For “MRVMAKIELLAKFTQIALPNSHPLLKKVLNYAKKHFSQCHMLSSSLLILNDTECFKKNYLLNWVYHALECVHEKDISAHSLEEVLQKSHLPIRIKIMAQNTLLEKIEVKVLTFGAEYALFITKHPIAKRFLRQKFSGCVFLETQDELHIRGDSERFWELIVTLNENRIVHNACLDFIYPNGFGKDSYTTMAERKLKECYKTLGFIKHEDFSEVKKRYLELAKTYHPDLCDLKEKKALYAKRFAIIQEAYRHIKKHALEHHHHHH”, the “soluble on expression in E. coli” value was “soluble”.
In the case of “MSLTNSDWMPTASISQLKQRATLLRQIREFFAERNVLEVETPAMSHATVTDIHLHTFKTEFVGPGYAKGSALHLMTSPEFHMKRLLAAGSGCIYQLGKAFRNEENGRYHNPEFTMLEWYRIGFDHHALMDEMDALLQLVLRCGSAERMTYQEAFLNVLGVCPLEEEMRELKQVAATLGLSDIAEPEEDRDTLLQLLFSIGIEPKIGQITPAFVYDFPASQAALAKINPADPRVADRFEVYFKGIELANGFHELDNPAEQLARFKADNAKRLEMGLTEQPIDYHLIAALEAGLPECAGVALGIDRLIMLALGEDHIDKVTAFPFPRAEGHHHHHH”, the “soluble on expression in E. coli” value is reported as “soluble”.
For “MSLIYSSENDYSILEDKTATGKKRDWKGKKRRTNLMAEHYEALESKIGAPYYGKKAEKLISCAEYLSFKRDPETGKLKLYQAHFCKVRLCPMCAWRRSLKIAYHNKLIVEEANRQYGCGWIFLTLTIRNVKGERLKPQISAMMEGFRKLFQYKKVKTSVLGFFRALEITKNHEEDTYHPHFHVLIPVRKNYFGKNYIKQAEWTSLWKKAMKLDYTPIVDIRRVKGKAKIDAEQIENDVRNAMMEQKAVLEISKYPVKDTDVVRGNKVTEDNLNTVLYLDDALAARRLIGYGGILKEIHKELNLGDAEDGDLVKIEEEDDEVANGAFEVMAYWHPGIKNYIIKEGHHHHHH”, the “soluble on expression in E. coli” value was “soluble”.
For “MGSDKIHHHHHHMLAALKKYLLVPKLMRLSAGAPRDHHIAWDRFWSNVKTTGASGDVLWDSGSDHEMQGYVDRLRLHLDPGLPIVDIGCGNGSFTRQLAGHFPHAVGVDVSAHAVRRARAETAGLANISYAVADMTASGAGSGLLEELAVLDTGGQAGGGANVFIRGVLHVLGERDQHALAENARAITRANGRVFLAETNFRGNAVDYVTHLGATLRSIPAPLEGAIRGLPMPGRFGPKERSLAFPASRWELIEEGPTTIETMPLSNPARSDLIPGYFAVLEGRN”, the “soluble on expression in E. coli” value was “not soluble”.
With “MGKMAAAVGSVATLATEPGEDAFRKLFRFYRQSRPGTADLEGVIDFSAAHAARGKGPGAQKVIKSQLNVSSVSEQNAYRAGLQPVSKWQAYGLKGYPGFIFIPNPFLPGYQWHWVKQCLKLYSQKPNVCNLDKHMSKEETQDLWEQSKEFLRYKEATKRRPRSLLEKLRWVTVGYHYNWDSKKYSADHYTPFPSDLGFLSEQVAAACGFEDFRAEAGILNYYRLDSTLGIHVDRSELDHSKPLLSFSFGQSAIFLLGGLQRDEAPTAMFMHSGDIMIMSGFSRLLNHAVPRVLPNPEGEGLPHCLEAPLPAVLPRDSMVEPCSMEDWQVCASYLKTARVNMTVRQVLATDQNFPLEPIEDEKRDISTEGFCHLDDQNSEVKRARINPHS” the “soluble on expression in E. coli” value was “not soluble”.
